Reference: patent publication US10500249B2, “Compositions and methods for preventing or treating diseases, conditions, or processes characterized by aberrant fibroblast proliferation and extracellular matrix deposition” (MOERAE MATRIX, INC., priority 2014, dated 2019)

What was measured:
Assay in all cases: Kinase Profiling Assay
Type in all cases: biochemical
Conditions in all cases: 100 μM
[1] = target: T1, mTOR (h) (Homo sapiens, UniProt P42345)
T1 construct: purchased Millipore
How it was run: (§1)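 In this 266-kinase specificity panel, every measurement was duplicated. Transfer of labeled phosphate from ATP to a cationic substrate was quantified after the substrate adhered to an anionic filter membrane and was scintillation-counted, then related to a full-activity control.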

[2] = target: Met (h) (Homo sapiens, UniProt P08581)
Sequence of Met (h) (P08581 25-1390): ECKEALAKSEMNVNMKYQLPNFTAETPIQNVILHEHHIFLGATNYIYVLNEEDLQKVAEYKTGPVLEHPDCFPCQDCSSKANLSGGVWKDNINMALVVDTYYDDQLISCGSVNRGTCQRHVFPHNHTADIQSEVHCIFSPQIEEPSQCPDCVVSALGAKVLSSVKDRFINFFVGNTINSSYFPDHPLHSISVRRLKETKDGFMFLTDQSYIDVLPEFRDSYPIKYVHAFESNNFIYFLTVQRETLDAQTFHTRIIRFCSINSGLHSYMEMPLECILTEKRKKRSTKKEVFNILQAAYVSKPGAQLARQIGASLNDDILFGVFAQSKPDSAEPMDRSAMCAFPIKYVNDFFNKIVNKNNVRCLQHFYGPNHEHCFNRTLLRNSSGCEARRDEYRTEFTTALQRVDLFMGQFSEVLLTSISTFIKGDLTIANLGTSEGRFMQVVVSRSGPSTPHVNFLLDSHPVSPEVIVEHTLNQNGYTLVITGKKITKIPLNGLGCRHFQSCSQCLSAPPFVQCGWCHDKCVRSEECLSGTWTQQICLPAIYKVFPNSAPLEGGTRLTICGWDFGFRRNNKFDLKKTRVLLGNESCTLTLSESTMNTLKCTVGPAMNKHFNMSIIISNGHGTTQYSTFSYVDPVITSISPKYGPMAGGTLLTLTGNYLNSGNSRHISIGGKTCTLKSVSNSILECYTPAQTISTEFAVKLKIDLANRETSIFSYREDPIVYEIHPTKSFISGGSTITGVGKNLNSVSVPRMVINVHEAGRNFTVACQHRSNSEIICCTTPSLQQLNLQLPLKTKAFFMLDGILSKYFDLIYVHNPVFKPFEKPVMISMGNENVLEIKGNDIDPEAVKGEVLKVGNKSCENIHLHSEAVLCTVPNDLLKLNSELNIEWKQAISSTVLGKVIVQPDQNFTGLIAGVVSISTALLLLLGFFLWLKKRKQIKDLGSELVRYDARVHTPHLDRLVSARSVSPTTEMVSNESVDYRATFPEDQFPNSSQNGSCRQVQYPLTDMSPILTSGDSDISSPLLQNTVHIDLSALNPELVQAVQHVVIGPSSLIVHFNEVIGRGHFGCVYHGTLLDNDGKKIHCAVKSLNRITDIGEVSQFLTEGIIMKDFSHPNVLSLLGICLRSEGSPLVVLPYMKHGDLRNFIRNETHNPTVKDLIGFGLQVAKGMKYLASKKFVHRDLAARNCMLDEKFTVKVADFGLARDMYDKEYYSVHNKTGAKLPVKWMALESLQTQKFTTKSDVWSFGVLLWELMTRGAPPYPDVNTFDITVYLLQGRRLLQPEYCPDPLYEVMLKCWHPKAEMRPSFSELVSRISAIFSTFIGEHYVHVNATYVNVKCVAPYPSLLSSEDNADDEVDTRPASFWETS
How it was run: as §1

[3] = target: T2, IR (h) (Homo sapiens, UniProt P06213)
T2 construct: purchased Millipore
How it was run: as §1

[4] = target: T3, CDK2/cyclinA (h) (Homo sapiens, UniProt P24941)
T3 construct: purchased Millipore
How it was run: as §1

[5] = target: T4, PKCε (h) (Homo sapiens, UniProt Q02156)
T4 construct: purchased Millipore
T4 sequence (Q02156 1-737): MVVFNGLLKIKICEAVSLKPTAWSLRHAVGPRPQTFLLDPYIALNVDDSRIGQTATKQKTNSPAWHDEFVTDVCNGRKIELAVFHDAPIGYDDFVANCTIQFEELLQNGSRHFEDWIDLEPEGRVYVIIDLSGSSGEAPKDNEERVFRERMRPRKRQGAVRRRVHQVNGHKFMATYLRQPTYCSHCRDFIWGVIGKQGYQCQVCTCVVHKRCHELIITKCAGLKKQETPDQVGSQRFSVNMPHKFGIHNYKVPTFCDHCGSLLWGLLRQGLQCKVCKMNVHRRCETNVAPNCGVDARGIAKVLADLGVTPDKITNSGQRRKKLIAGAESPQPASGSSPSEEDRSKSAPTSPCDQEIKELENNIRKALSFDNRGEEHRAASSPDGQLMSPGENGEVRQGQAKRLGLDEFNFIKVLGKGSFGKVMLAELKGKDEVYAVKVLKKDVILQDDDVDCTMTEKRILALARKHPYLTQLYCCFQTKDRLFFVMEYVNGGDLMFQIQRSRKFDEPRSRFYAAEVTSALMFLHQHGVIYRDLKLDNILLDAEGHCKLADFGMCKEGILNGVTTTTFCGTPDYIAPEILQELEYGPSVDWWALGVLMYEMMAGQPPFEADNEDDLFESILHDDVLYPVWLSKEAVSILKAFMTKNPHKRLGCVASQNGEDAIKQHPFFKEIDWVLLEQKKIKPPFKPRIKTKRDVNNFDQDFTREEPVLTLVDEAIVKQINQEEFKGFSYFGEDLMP
How it was run: as §1

[6] = target: SIK (h) (Homo sapiens, UniProt P57059)
How it was run: as §1

[7] = target: T5, PKBγ (h) (Homo sapiens, UniProt Q9Y243)
T5 construct: purchased Millipore
T5 sequence (Q9Y243 whole entry): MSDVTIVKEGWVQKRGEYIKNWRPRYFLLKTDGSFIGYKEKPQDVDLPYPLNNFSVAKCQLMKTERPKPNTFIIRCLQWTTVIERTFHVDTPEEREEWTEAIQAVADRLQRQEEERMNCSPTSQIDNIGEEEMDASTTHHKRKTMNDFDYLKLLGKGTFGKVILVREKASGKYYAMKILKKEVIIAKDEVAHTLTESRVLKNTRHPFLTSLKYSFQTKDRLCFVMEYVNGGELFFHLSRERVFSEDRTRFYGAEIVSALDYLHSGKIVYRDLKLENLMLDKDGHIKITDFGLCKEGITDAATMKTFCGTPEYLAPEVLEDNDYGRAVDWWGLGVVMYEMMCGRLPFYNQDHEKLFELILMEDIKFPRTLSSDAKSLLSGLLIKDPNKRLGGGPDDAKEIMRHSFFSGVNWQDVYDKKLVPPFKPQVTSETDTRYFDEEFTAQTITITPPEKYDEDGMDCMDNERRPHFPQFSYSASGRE
How it was run: as §1

[8] = target: Yes (h) (Homo sapiens, UniProt P07947)
Sequence of Yes (h) (P07947 whole entry): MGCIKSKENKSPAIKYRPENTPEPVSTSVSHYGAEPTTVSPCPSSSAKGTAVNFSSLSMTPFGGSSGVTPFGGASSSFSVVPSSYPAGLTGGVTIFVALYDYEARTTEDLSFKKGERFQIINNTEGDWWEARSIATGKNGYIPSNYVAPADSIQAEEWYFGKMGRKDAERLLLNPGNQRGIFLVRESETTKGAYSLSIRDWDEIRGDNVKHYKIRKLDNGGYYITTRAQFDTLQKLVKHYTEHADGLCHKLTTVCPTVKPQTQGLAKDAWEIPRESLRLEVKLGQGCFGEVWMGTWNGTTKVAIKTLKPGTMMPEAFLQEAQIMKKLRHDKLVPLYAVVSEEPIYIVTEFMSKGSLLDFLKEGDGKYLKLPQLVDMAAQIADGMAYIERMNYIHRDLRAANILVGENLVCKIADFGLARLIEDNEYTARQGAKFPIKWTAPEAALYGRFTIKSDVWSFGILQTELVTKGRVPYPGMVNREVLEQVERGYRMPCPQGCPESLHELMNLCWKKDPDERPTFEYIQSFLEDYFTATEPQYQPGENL
How it was run: as §1

[9] = target: JNK2α2 (h) (Homo sapiens, UniProt P45984)
How it was run: as §1

[10] = target: T6, MRCKβ (h) (Homo sapiens, UniProt Q9Y5S2)
T6 construct: purchased Millipore
How it was run: as §1

[11] = target: T7, cSRC (h) (Homo sapiens, UniProt P12931)
T7 construct: purchased Millipore
How it was run: as §1

[12] = target: T8, Txk (h) (Homo sapiens, UniProt P42681)
T8 sequence (P42681 1-527): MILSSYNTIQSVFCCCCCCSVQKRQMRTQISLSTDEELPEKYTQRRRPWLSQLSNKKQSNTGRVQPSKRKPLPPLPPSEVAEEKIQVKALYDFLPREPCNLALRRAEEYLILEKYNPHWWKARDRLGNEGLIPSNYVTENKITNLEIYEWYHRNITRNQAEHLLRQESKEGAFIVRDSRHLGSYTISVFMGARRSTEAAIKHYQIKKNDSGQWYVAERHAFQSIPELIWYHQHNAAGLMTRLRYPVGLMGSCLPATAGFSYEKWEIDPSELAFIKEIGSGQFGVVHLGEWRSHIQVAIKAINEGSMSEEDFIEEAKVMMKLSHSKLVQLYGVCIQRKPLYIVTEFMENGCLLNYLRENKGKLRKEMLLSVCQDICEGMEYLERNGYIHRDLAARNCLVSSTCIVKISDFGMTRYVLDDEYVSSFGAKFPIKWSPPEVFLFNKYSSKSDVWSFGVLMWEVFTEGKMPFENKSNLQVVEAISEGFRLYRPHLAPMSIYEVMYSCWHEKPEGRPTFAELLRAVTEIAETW
How it was run: as §1

[13] = target: Lck (h) activated (Homo sapiens, UniProt P06239)
How it was run: as §1

[14] = target: T9, GSK3α (h) (Homo sapiens, UniProt P49840)
T9 construct: purchased Millipore
How it was run: as §1

[15] = target: T10, p70S6K (h) (Homo sapiens, UniProt P23443)
T10 construct: purchased Millipore
T10 sequence (P23443 whole entry): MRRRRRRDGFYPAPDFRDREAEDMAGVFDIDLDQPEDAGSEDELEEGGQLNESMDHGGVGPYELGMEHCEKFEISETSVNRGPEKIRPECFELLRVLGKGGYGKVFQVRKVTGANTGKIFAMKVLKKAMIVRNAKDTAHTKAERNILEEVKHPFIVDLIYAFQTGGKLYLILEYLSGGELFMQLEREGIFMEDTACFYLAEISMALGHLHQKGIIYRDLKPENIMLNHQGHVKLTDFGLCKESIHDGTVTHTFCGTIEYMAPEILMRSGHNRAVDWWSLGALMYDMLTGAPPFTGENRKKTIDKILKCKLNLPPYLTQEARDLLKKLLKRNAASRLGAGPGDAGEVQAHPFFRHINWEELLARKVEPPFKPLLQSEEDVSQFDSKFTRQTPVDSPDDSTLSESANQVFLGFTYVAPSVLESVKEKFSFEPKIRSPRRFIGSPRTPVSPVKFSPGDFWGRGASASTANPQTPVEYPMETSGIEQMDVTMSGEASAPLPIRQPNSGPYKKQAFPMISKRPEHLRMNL
How it was run: as §1

[16] = target: FGFR3 (h) (Homo sapiens, UniProt P22607)
Sequence of FGFR3 (h) (P22607 23-806): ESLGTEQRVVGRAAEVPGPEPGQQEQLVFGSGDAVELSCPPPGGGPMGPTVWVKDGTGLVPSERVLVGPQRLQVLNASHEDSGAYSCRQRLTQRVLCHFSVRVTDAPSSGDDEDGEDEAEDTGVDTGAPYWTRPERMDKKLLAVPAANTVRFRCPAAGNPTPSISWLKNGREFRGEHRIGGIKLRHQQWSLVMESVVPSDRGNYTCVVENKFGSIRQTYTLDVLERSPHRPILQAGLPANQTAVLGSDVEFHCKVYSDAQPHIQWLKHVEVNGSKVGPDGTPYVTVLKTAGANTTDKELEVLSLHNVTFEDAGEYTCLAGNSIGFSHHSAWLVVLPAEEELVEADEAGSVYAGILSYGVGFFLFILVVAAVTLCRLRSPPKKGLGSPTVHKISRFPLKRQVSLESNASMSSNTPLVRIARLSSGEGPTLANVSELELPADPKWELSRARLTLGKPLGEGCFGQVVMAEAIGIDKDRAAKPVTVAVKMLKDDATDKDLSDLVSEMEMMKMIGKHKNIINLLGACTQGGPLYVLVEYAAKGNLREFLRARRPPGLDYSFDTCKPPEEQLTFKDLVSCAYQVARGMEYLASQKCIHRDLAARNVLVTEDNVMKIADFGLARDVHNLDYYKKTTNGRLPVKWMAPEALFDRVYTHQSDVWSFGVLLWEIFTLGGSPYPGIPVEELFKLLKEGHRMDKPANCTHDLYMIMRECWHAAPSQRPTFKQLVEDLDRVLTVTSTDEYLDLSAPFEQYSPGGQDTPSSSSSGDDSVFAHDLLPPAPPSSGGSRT
How it was run: as §1

[17] = target: FAK (h) (Homo sapiens, UniProt Q05397)
Sequence of FAK (h) (Q05397 whole entry): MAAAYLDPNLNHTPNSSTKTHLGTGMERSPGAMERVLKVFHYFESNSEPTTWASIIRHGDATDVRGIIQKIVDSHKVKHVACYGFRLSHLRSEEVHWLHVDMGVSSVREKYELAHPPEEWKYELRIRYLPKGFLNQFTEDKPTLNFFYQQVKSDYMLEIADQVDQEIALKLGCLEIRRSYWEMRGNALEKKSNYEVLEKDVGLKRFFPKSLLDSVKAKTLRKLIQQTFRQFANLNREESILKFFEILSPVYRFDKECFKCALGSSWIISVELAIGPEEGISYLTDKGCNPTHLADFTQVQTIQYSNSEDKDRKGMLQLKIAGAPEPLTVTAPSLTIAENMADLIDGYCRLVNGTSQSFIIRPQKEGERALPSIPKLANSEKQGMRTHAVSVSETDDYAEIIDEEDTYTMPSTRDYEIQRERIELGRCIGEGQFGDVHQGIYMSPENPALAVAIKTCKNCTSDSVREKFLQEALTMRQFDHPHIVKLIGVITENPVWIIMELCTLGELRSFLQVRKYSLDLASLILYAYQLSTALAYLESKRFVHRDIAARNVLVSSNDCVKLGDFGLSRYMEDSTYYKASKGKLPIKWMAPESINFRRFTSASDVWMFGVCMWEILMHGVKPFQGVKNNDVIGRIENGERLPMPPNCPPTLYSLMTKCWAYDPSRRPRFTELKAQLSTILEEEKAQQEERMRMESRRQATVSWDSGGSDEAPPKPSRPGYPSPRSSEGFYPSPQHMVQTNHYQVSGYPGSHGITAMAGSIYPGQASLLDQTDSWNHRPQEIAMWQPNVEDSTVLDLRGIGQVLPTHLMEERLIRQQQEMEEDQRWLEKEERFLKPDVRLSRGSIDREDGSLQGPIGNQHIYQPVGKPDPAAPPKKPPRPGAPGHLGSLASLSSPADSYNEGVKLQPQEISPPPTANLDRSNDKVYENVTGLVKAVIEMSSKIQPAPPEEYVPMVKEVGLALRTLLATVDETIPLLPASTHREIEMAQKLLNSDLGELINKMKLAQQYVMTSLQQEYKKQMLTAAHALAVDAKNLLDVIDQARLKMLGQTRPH
How it was run: as §1

| Sequence | % activity [1] | % activity [2] | % activity [3] | % activity [4] | % activity [5] | % activity [6] | % activity [7] | % activity [8] | % activity [9] | % activity [10] | % activity [11] | % activity [12] | % activity [13] | % activity [14] | % activity [15] | % activity [16] | % activity [17] |
| --- | --- | --- | --- | --- | --- | --- | --- | --- | --- | --- | --- | --- | --- | --- | --- | --- | --- |
| FAKLAARLYRKALARQLGVAA [MMI-0300] | 91% | 65% | 96% | 86% | 79% | 66% | 20% | 67% | 98% | 83% | 26% | 48% | 243% | 157% | 35% |  |  |
| HRRIKAWLKKIKALARQLGVAA (Mammalian) [MMI-0500] | 135% | 27% | 95% | 87% | 23% | 40% | 20% |  | 81% | −10% | 30% | 10% | 76% | 175% | 3% | 10% | 94% |
| KAFAKLAARLYRKALARQLGVAA [MMI-0400] | 93% | 62% | 85% | 92% | 59% | 68% | 41% | 14% | 96% | 71% | 14% | 37% | 216% | 164% | 33% | 0% | 96% |
| YARAAARQARAKALNRQLGVA (Mammalian) [MMI-0200] | 110% | 71% | 90% |  | 98% |  |  | 93% |  |  | 32% | 98% | 90% |  | 84% | 208% | 110% |
